Tests used:
[1] = target: T1, human VEGF (human, UniProt P15692-4 27-191, limits assumed); experiment: SPR, BIAcore-3000, human VEGF on CM5 chip, average of two experiments
T1 construct: The background describes VEGF as a homodimer

[2] = target: T1, human VEGF; experiment: SPR, BIAcore-3000, human VEGF on CM5 chip, experiment 1
[3] = target: T2, IgG Fc-hVEGF-A (Human VEGF 165) fusion protein (rabbit; human, UniProt P15692-4 27-191); experiment: competitive ELISA: antibody mixed with IgG Fc-hVEGF, added to plate-bound IgG Fc-VEGFR2 (KDR); bound VEGF detected (OD405) [FIG. 1]
T2 construct: Expressed in HEK 293-6E cells and purified on Protein A; not shown: rabbit IgG Fc

[4] = target: T1, human VEGF; experiment: SPR, BIAcore-3000, human VEGF on CM5 chip
[5] = target: T1, human VEGF; experiment: SPR, BIAcore-3000, human VEGF on CM5 chip; reference AVASTIN
[6] = target: T1, human VEGF; experiment: SPR, BIAcore-3000, human VEGF on CM5 chip, experiment 2
[7] = target: T2, IgG Fc-hVEGF-A (Human VEGF 165) fusion …; experiment: competitive ELISA: antibody premixed with IgG Fc-hVEGF, plate coated with IgG Fc-VEGFR2 (KDR)
[8] = target: T2, IgG Fc-hVEGF-A (Human VEGF 165) fusion …; experiment: direct binding ELISA on plate-bound IgG Fc-hVEGF, detection with donkey anti-human IgG-AP (OD405) [FIG. 4]

T2 sequence (P15692 other isoform, or with tags, fused parts or gaps limits assumed): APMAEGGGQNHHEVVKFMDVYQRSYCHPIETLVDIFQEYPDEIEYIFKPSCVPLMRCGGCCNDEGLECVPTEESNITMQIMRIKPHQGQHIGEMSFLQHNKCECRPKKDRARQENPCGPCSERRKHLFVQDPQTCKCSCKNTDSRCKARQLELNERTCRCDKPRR
T1 sequence (P15692 other isoform, or with tags, fused parts or gaps limits assumed): as above

B1: EPI0030 antibody (humanized rabbit anti-VEGF monoclonal antibody expressed by the HZD-V6 clone) (antibody, human IgG1, kappa, V domains shown)
VH: EVQLVESGGGLVKPGGSLRLSCAASGFSFSNNDVMCWVRQAPGKGLEWIGCIMTTDVVTEYANWAKSRFTVSRDSAKNSVYLQMNSLRAEDTAVYFCARDSVGSPLMSFDLWGPGTLVTVSS
VL: DIQMTQSPSSLSASVGDRVTINCQASQSIYNNNELSWYQQKPGKPPKLLIYRASTLASGVPSRFSGSGSGTDFTLTISSLQPEDVATYYCGGYKSYSNDGNGFGGGTKVEIKR
[1]
  Kd: 0.485 nM
[2]
  Kd: 0.331 nM
[3]
  IC50 (read off the curve): ~0.9 µg/mL
[4]
  ratio of Kd to that of AVASTIN: 0.01
[5]
  ratio of Kd to that of AVASTIN: 0.01 fold (Kd of EPI0030 / Kd of AVASTIN)
[6]
  Kd: 0.638 nM
[7]
  IC50: 0.166 µg/mL
[8]
  EC50 (read off the curve): ~0.01 µg/mL

B2: recombinant humanized antibody expressed by the HZD-V5 clone (antibody, V domains shown)
VH: EVQLVESGGGLVKPGGSLRLSCAASGFSFSNNDVMCWVRQAPGKGLEWIGCIMTTDVVTEYANWAKSRFTVSKDSAKNSVYLQMNSLRAEDTAVYFCARDSVGSPLMSFDLWGPGTLVTVSS
VL: DIQMTQSPSSLSASVGDRVTINCQASQSVYGNNELSWYQQKPGKPPKLLIYRASTLASGVPSRFSGSGSGTDFTLTISSLQPEDVATYYCGGYKSYSNDGNGFGGGTKVEIK
notes: The pairing of VH-HZD5 with VK-HZD5 for clone HZD-V5 is inferred from the names; Variable domains were cloned onto human CH and human CK
[3]
  IC50 (read off the curve): ~0.9 µg/mL

B3: recombinant humanized antibody expressed by the HZD-V1 clone (antibody, V domains shown)
VH: QQLVESGGGLVKPGGSLRLSCAASGFSFSNNDVMCWVRQAPGKGLEWIGCIMTTDVVTEYANWAKSRFTVSKDSAKNSVYLQMNSLRAEDTAVYFCARDSVGSPLMSFDLWGPGTLVTVSS
VL: ALQMTQSPSSLSASVGDRVTINCQASQSVYGNNELSWYQQKPGKPPKLLIYRASTLASGVPSRFSGSGSGTDFTLTISSLQPEDVATYYCGGYKSYSNDGNGFGGGTKVEIK
notes: The pairing of VH-HZD1 with VK-HZD1 for clone HZD-V1 is inferred from the names; Variable domains were cloned onto human CH and human CK
[3]
  IC50 (read off the curve): ~0.9 µg/mL

B4: recombinant humanized antibody expressed by the HZD-V2 clone (antibody, V domains shown)
VH: QQLVESGGGLVKPGGSLRLSCAASGFSFSNNDVMCWVRQAPGKGLEWIGCIMTTDVVTEYANWAKSRFTVSRDSAKNSVYLQMNSLRAEDTAVYFCARDSVGSPLMSFDLWGPGTLVTVSS
VL: ALQMTQSPSSLSASVGDRVTINCQASQSIYNNNELSWYQQKPGKPPKLLIYRASTLASGVPSRFSGSGSGTDFTLTISSLQPEDVATYYCGGYKSYSNDGNGFGGGTKVEIK
notes: The pairing of VH-HZD2 with VK-HZD2 for clone HZD-V2 is inferred from the names; Variable domains were cloned onto human CH and human CK
[3]
  IC50 (read off the curve): ~0.9 µg/mL
